Patent US6521594 (LA JOLLA CANCER RESEARCH FOUNDATION, dated 2003)
Starred links: 1 amine or outer side, 2 acyl side, 3 side chain; linkers in the order of their positions; H or OH if unused. Positions of bridges follow the written chain, without caps; N, C: chain ends. Non-standard residues stand in square brackets, D forms with d. No end group written: not given here. Cys(β,β-pentamethylene) = O=C([C@@H](N[*:1])C1(S[*:3])CCCCC1)[*:2]; Phe(4-NO2) = N[C@@H](Cc1ccc([N+](=O)[O-])cc1)C(=O)O; Phe(4-I) = N[C@@H](Cc1ccc(I)cc1)C(=O)O; Cha = N[C@@H](CC1CCCCC1)C(=O)O; Pen = CC(C)(S)[C@H](N)C(=O)O; Orn = NCCC[C@H](N)C(=O)O

biological target: T1, Vitronectin receptor (human, UniProt P06756 31-1048; P05106 27-788); assay: competition, ELISA or liposome assay, vitronectin coated
T1 construct: mature; also called Vn-R; VnR
T1 sequence (P06756 31-1048, chain 1 of 2): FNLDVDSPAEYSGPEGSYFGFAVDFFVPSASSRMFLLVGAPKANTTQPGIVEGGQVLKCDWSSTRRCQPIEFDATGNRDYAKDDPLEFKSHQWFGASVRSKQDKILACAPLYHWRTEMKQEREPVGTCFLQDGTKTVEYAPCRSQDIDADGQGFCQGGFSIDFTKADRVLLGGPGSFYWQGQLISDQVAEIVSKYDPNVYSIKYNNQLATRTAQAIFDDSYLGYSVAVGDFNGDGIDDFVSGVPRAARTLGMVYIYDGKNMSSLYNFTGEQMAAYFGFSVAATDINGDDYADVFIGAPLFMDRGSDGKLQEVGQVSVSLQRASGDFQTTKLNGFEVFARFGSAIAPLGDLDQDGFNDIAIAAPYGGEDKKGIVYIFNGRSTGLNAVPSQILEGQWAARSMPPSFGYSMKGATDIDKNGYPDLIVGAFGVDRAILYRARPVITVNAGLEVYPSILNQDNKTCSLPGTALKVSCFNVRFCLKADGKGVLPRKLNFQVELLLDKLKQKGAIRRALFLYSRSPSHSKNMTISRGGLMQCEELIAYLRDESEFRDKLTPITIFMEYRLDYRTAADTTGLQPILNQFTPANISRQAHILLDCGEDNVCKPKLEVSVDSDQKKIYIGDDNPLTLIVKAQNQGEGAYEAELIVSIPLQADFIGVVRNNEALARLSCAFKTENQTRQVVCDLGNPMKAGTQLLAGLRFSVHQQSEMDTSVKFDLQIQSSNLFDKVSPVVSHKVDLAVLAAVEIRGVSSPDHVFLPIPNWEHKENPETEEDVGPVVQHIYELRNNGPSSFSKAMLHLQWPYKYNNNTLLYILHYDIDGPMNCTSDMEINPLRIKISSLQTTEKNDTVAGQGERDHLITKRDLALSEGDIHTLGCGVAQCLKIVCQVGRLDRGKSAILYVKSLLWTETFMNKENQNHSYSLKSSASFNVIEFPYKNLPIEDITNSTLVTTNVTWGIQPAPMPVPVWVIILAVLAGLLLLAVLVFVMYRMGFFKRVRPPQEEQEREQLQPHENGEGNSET
T1 sequence (P05106 27-788, chain 2 of 2): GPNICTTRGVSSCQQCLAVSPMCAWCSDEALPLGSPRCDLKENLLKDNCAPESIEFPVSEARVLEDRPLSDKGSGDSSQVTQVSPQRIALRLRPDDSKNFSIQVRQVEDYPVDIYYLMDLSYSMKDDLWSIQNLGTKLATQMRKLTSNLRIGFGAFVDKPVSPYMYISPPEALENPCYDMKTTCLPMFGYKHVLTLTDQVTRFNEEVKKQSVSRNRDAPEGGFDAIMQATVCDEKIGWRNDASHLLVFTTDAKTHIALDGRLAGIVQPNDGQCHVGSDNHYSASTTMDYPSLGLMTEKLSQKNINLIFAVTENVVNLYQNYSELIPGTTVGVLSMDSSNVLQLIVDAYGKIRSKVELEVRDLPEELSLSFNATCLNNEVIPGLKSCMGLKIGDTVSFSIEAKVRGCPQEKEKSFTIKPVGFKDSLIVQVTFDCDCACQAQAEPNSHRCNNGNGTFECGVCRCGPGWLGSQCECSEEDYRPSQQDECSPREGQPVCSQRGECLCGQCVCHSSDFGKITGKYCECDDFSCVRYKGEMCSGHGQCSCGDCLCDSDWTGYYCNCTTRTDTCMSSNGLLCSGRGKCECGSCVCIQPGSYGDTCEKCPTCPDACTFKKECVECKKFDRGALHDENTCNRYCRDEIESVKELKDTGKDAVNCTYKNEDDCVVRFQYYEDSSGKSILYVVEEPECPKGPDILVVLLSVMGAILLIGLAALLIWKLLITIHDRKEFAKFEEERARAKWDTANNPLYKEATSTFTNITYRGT

Compared with YRGDSPDG, R[Cys(β,β-pentamethylene)]GHRGD[Phe(4-I)]KCR (disulfide 2-10) [R(Pmc)GHRGD(p-iodo-Phe)KCR] is 100-fold higher in IC50: 0.08 µM for the first, 8 µM for the second. The first is the more potent here.

R[Cys(β,β-pentamethylene)]GHRGD[Phe(4-NO2)]KCR (disulfide 2-10) [R(Pmc)GHRGD(p-nitro-Phe)KCR] gave an IC50 of 10 µM.

biological target: Platelet glycoprotein IIb/IIIa (human, UniProt P08514 32-1039; P05106 27-788); assay: cell-based or functional assay

Compared with G[Pen]GRGDTPCA (disulfide 2-9) [G(Pen)GRGDTPCA], G[Pen]LRGDTPCA (disulfide 2-9) [G(Pen)LRGDTPCA] is 3.9-fold higher in “IC50, ADP-Stimulated Aggregation” value: 22.3 µM for the first, 86 µM for the second.

Going from G[Pen]LRGDSRCA (disulfide 2-9) [G(Pen)LRGDSRCA] to R[Cys(β,β-pentamethylene)]GHRGDFRCR (disulfide 2-10 (inferred)) [R(Pmc)GHRGDFRCR], the “IC50, ADP-Stimulated Aggregation” value falls from 41 µM to 0.62 µM (66-fold).

First: R[Cys(β,β-pentamethylene)]GHRGDYRCR (disulfide 2-10) [R(Pmc)GHRGDYRCR]
Second: R[Pen]GRGDSRCA (disulfide 2-9) [R(Pen)GRGDSRCA]
The “IC50, ADP-Stimulated Aggregation” value of the first is 12-fold lower: 1 µM for the first, 12 µM for the second.

Compared with G[Pen]GRGDRPCA (disulfide 2-9) [G(Pen)GRGDRPCA], G[Pen]LRGDSPCA (disulfide 2-9) [G(Pen)LRGDSPCA] is 19-fold higher in “IC50, ADP-Stimulated Aggregation” value: 22.3 µM for the first, 415 µM for the second.

Compared with R[Pen]GHRGDTRCR (disulfide 2-10) [R(Pen)GHRGDTRCR], G[Pen]YRGDSPCA (disulfide 2-9) [G(Pen)YRGDSPCA] is 5.3-fold higher in “IC50, ADP-Stimulated Aggregation” value: 8.8 µM for the first, 47 µM for the second.

G[Pen]GHRGDTRCA (disulfide 2-10) [G(Pen)GHRGDTRCA] and L[Pen]GHRGDLRCA (disulfide 2-10) [L(Pen)GHRGDLRCA] are within 1.5-fold of each other in “IC50, ADP-Stimulated Aggregation” value: 11.3 µM for the first, 10.5 µM for the second.

XGHRGDLRXA (not fully specified; t-but-am-Pmp at 1; Pen at 9) [(t-but-am-Pmp)GHRGDLR(Pen)A] and R[Cys(β,β-pentamethylene)]RGD[Cha]CR (disulfide 2-7) [R(am-Pmp)RGD(Cha)CR] cannot be ordered by “IC50, ADP-Stimulated Aggregation” value: 89 µM for the first, < 200 µM for the second.

R[Pen]GRGDLRCA (disulfide 2-9) [R(Pen)GRGDLRCA] and R[Orn]GHRGDLRDR [R(orn)GHRGDLRDR] cannot be ordered by “IC50, ADP-Stimulated Aggregation” value: 16 µM for the first, < 200 µM for the second.

In the case of [t‑butylAmino‑Pmp]GHRGDLRCA (disulfide 1-9; also: place of tert-butyl and chirality not given here) [(t-butylAmino-Pmp) GHRGDLRCA], the “IC50, ADP-Stimulated Aggregation” value is reported as 130 µM.

Going from R[Pen]GRGDWPCR (disulfide 2-9) [R(Pen)GRGDWPCR] to G[Pen]LRGDSRCA (disulfide 2-9) [G(Pen)LRGDSRCA], the “IC50, Thrombin Stimulated Aggregation” value rises from 0.53 µM to 49 µM (92-fold).

Compared with R[Pen]GRGDSRCA (disulfide 2-9) [R(Pen)GRGDSRCA], G[Pen]LRGDSPCA (disulfide 2-9) [G(Pen)LRGDSPCA] is 26-fold higher in “IC50, Thrombin Stimulated Aggregation” value: 12 µM for the first, 308 µM for the second.

G[Pen]GHRGDTRCA (disulfide 2-10) [G(Pen)GHRGDTRCA] and R[Pen]GRGDLRCA (disulfide 2-9) [R(Pen)GRGDLRCA] are within 1.5-fold of each other in “IC50, Thrombin Stimulated Aggregation” value: 17 µM for the first, 13 µM for the second.
